Source: paper PMC6423008
Values joined by “and” are separate entries in the source; they are usually repeats but may differ in a detail not shown here. Equal values may be shown once.

Assays:
His52 = His52 (UniProt position 53, FTWSQHYSGGH); experiment: NMR; details: 283 K (10 °C), 50 mM KCl plus 20 mM potassium phosphate, folded, 0.5 mM protein
His57 = His57 (UniProt position 58, HYSGGHTMTNK); experiment: NMR; details: 283 K (10 °C), 50 mM KCl plus 20 mM potassium phosphate, folded, 0.5 mM protein
His98 [1] = target: His98 (UniProt position 99, NFPNYHQTSEI); experiment: NMR; details: 283 K (10 °C), 50 mM KCl plus 20 mM potassium phosphate, folded, 0.5 mM protein
His98 [2] = target: His98 (UniProt position 99, SEKFSHEQEVK); details: apo chicken liver BABP; cited from earlier work
[3] = 0.05% NaN3, holo: doubly ligated I-BABP:GCDA:GCA = 1.0:1.5:1.5 complex

Substance	pKa (His52; 0.05% NaN3, apo (ligand-free))	pKa (His52; [3])	pKa (His57; 0.05% NaN3, apo (ligand-free))	pKa (His57; [3])	pKa (His98 [1]; 0.05% NaN3, apo (ligand-free))	pKa (His98 [1]; [3])	pKa (His98 [2])
Ileal bile acid-binding protein (I-BABP, gastrotropin, FABP6) (Homo sapiens)	6.7	6.6 and 6.5 and 6.8	6.4	7.9	6.6 and 6.7 and 6.8	7.0 and 7.2	
Liver bile acid-binding protein (cL-BABP, liver basic fatty acid-binding protein) (Gallus gallus)							4.7
